Assay results reported in PMC8626645 (Molecular Pharmacology, 2021).

What was measured:
[1] = in vivo; cited from earlier work
Text: Pathologic increases in blood glucose, the central metabolic defect in T2D, occur chiefly because of failure of pancreatic β cells to release enough of the glucoregulatory hormone insulin and overweight-related tissue resistance to insulin action.

[2] = molecular target: SNAP-GLP-1R (HEK293-SNAP-GLP-1R cells) (UniProt P43220); experiment: FRET or BRET
Sequence of UniProt P43220 (P43220 24-463): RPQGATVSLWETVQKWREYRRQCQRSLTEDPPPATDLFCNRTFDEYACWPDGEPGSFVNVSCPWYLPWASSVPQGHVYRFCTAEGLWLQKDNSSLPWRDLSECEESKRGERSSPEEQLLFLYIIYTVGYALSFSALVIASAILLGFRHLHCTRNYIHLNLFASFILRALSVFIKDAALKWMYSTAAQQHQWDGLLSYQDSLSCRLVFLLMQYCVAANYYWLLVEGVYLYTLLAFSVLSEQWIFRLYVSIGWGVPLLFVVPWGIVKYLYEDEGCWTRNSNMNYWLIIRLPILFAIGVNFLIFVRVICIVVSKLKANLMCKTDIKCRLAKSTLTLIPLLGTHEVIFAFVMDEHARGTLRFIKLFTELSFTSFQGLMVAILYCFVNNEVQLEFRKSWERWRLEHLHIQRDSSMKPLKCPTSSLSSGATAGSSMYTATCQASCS

Row | Substance | inactivation in the circulation [1] | Log Ki (M) [2] [log M]
1 | GLP-1(7-36)NH2: the endogenous ligand for GLP-1R | enzymatically inactivated in the circulation within minutes | 
2 | exendin-4 (from UniProt P26349 48-87) (peptide) |  | -9.2
